# In patent publication US11814435B2, “Therapeutic antibodies and their uses” (PFIZER INC., priority 2015, dated 2023):
# T1: hBCMA (human BCMA) (Homo sapiens, UniProt Q02223)
# T1 sequence (Q02223 1-184): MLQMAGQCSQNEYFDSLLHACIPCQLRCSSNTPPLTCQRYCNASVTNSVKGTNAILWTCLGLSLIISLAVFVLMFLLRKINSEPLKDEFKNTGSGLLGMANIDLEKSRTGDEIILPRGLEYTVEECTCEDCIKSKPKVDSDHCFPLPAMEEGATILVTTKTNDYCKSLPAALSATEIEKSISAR
# Legend:
# cyBCMA = test: Kinetics and affinity of cyBCMA/human IgG interactions by SPR (Bio-Rad Proteon XPR36); format: binding, cynomolgus
# hBCMA (human BCMA) = target: T1, hBCMA (human BCMA); test: Kinetics and affinity of hBCMA/human IgG interactions by SPR (Bio-Rad Proteon XPR36); format: binding; conditions: huBCMA
# Procedure: All experiments were performed on a Bio-Rad Proteon XPR36 surface Plasmon resonance biosensor (Bio-Rad, Hercules, Calif.). An array of anti-BCMA antibodies was prepared using an amine-coupling method on a Bio-Rad GLC Sensor Chip similar to that described in Abdiche, et al., Anal. Biochem. 411, 139-151 (2011). The analysis temperature for the immobilization was 25° C. and the running buffer was HBS-T+(10 mM HEPES, 150 mM NaCl, 0.05% Tween-20, pH 7.4). Channels were activated in the analyte (horizontal) direction by injecting a mixture of 1 mM ECD and 0.25 mM NHS for 3 minutes at a flow rate of 30 μL/min. IgGs were immobilized on the activated spots by injecting them in the ligand (vertical) direction at 20 μg/mL in 10 mM Acetate pH 4.5 buffer for 1.5 minutes at […]. The activated surfaces were blocked by injecting 1M ethanolamine, pH 8.5 in the analyte direction for 3 minutes at 30 μL/min.
# The analysis temperature for the hBCMA binding analysis was 37° C. or 25° C. in a running buffer of HBS-T+, supplemented with 1 mg/mL BSA. A kinetic titration method was employed for the interaction analysis as described in Abdiche, et al. The hBCMA (human BCMA) analyte was injected in the analyte direction using a series of injections from low to high concentration. The concentrations used were 0.08 nM, 0.4 nM, 2 nM, 10 nM and 50 nM (a 5-membered series, with a 5-fold dilution factor and top concentration of 50 nM). The association time for a given analyte dilution was two minutes. Immediately after the 50 nM hBCMA injection, dissociation was monitored for 2 hours. Prior to the hBCMA analyte injections, buffer was injected 5 times using the same association and dissociation times at the hBCMA analyte cycles to prepare a buffer blank sensorgram for double-referencing purposes (double referencing as described in Myszka, J. Mol. Recognit. 12, 279-284 (1999).
# The sensorgrams were double-referenced and fit to a 1:1 Langmuir with mass transport kinetic titration model in BIAevaluation Software version 4.1.1 (GE Lifesciences, Piscataway, N.J.). The sensorgrams and fits are shown in FIG. 1, and the kinetics and affinity parameters for various anti-BCMA antibodies of the present invention are shown in Tables 6A-6C.
kd (1/s) cyBCMA @37° C. (cyBCMA) [s⁻¹],ka (1/Ms) huBCMA @ 37° C. (hBCMA (human BCMA)) [M⁻¹ s⁻¹],kd (1/s) huBCMA @37° C. (hBCMA (human BCMA)) [s⁻¹],kd (1/s) cyBCMA @25° C. (cyBCMA) [s⁻¹],ka (1/Ms) huBCMA @ 25° C. (hBCMA (human BCMA)) [M⁻¹ s⁻¹],kd (1/s) huBCMA @25° C. (hBCMA (human BCMA)) [s⁻¹],Molecule,ka (1/Ms) cyBCMA @ 37° C. (cyBCMA) [M⁻¹ s⁻¹],ka (1/Ms) cyBCMA @ 25° C. (cyBCMA) [M⁻¹ s⁻¹]
0.00796,3.12e+06,0.00147,–,–,–,"L3.PY/L3.KF/H3.YA: anti-BCMA antibody (antibody, V domains shown) VH: EVQLLESGGGLVQPGGSLRLSCAASGFTFGSYAMTWVRQAPGKGLEWVSAISGSGGNTFYADSVKGRFTISRDNSKNTLYLQMNSLRAEDTAVYYCARVSPIYAGMDYWGQGTLVTVSS VL: EIVLTQSPGTLSLSPGERATLSCRASQSVSSSYLAWYQQKPGQAPRLLIYGASSRATGIPDRFSGSGSGTDFTLTISRLEPEDFAVYYCKFYPYPPSFTFGQGTKVEIK",2.1e+06,–
–,–,–,0.0154,928000,0.00227,"L1.LGF/L3.KW/H3.AP: anti-BCMA antibody (antibody, V domains shown) VH: EVQLLESGGGLVQPGGSLRLSCAASGFTFGSYAMTWVRQAPGKGLEWVSAISGSGGNTFYADSVKGRFTISRDNSKNTLYLQMNSLRAEDTAVYYCARVSPIAAPMDYWGQGTLVTVSS VL: EIVLTQSPGTLSLSPGERATLSCRASQSLGSFYLAWYQQKPGQAPRLLIYGASSRATGIPDRFSGSGSGTDFTLTISRLEPEDFAVYYCKHYGWPPSFTFGQGTKVEIK",–,554000
–,–,–,0.0148,763000,0.00097,"L1.LGF/L3.NY/H3.AL: anti-BCMA antibody (antibody, V domains shown) VH: EVQLLESGGGLVQPGGSLRLSCAASGFTFGSYAMTWVRQAPGKGLEWVSAISGSGGNTFYADSVKGRFTISRDNSKNTLYLQMNSLRAEDTAVYYCARVSPIAALMDYWGQGTLVTVSS VL: EIVLTQSPGTLSLSPGERATLSCRASQSLGSFYLAWYQQKPGQAPRLLIYGASSRATGIPDRFSGSGSGTDFTLTISRLEPEDFAVYYCQHYNYPPSFTFGQGTKVEIK",–,635000
–,–,–,0.0203,1.17e+06,0.00461,"L1.GDF/L3.KW/H3.AP: anti-BCMA antibody (antibody, V domains shown) VH: EVQLLESGGGLVQPGGSLRLSCAASGFTFGSYAMTWVRQAPGKGLEWVSAISGSGGNTFYADSVKGRFTISRDNSKNTLYLQMNSLRAEDTAVYYCARVSPIAAPMDYWGQGTLVTVSS VL: EIVLTQSPGTLSLSPGERATLSCRASQSVGDFYLAWYQQKPGQAPRLLIYGASSRATGIPDRFSGSGSGTDFTLTISRLEPEDFAVYYCKHYGWPPSFTFGQGTKVEIK",–,814000
–,–,–,0.0121,428000,0.00123,"L1.LGF/L3.KW/H3.AL: anti-BCMA antibody (antibody, V domains shown) VH: EVQLLESGGGLVQPGGSLRLSCAASGFTFGSYAMTWVRQAPGKGLEWVSAISGSGGNTFYADSVKGRFTISRDNSKNTLYLQMNSLRAEDTAVYYCARVSPIAALMDYWGQGTLVTVSS VL: EIVLTQSPGTLSLSPGERATLSCRASQSLGSFYLAWYQQKPGQAPRLLIYGASSRATGIPDRFSGSGSGTDFTLTISRLEPEDFAVYYCKHYGWPPSFTFGQGTKVEIK",–,290000
0.00191,2.82e+06,0.00162,–,–,–,"L3.PY/L3.KF/H3.TAQ: anti-BCMA antibody (antibody, V domains shown) VH: EVQLLESGGGLVQPGGSLRLSCAASGFTFGSYAMTWVRQAPGKGLEWVSAISGSGGNTFYADSVKGRFTISRDNSKNTLYLQMNSLRAEDTAVYYCTRVSPIAAQMDYWGQGTLVTVSS VL: EIVLTQSPGTLSLSPGERATLSCRASQSVSSSYLAWYQQKPGQAPRLLIYGASSRATGIPDRFSGSGSGTDFTLTISRLEPEDFAVYYCKFYPYPPSFTFGQGTKVEIK",2.01e+06,–
0.00564,3.07e+06,0.00155,–,–,–,"L3.PY/L3.KF/H3.AE: anti-BCMA antibody (antibody, V domains shown) VH: EVQLLESGGGLVQPGGSLRLSCAASGFTFGSYAMTWVRQAPGKGLEWVSAISGSGGNTFYADSVKGRFTISRDNSKNTLYLQMNSLRAEDTAVYYCARVSPIAAEMDYWGQGTLVTVSS VL: EIVLTQSPGTLSLSPGERATLSCRASQSVSSSYLAWYQQKPGQAPRLLIYGASSRATGIPDRFSGSGSGTDFTLTISRLEPEDFAVYYCKFYPYPPSFTFGQGTKVEIK",1.85e+06,–
–,–,–,0.0219,907000,0.00403,"L1.GDF/L3.NY/H3.AL: anti-BCMA antibody (antibody, V domains shown) VH: EVQLLESGGGLVQPGGSLRLSCAASGFTFGSYAMTWVRQAPGKGLEWVSAISGSGGNTFYADSVKGRFTISRDNSKNTLYLQMNSLRAEDTAVYYCARVSPIAALMDYWGQGTLVTVSS VL: EIVLTQSPGTLSLSPGERATLSCRASQSVGDFYLAWYQQKPGQAPRLLIYGASSRATGIPDRFSGSGSGTDFTLTISRLEPEDFAVYYCQHYNYPPSFTFGQGTKVEIK",–,900000
–,–,–,0.00557,936000,0.000533,"L1.LGF/L3.NY/H3.AP: anti-BCMA antibody (antibody, V domains shown) VH: EVQLLESGGGLVQPGGSLRLSCAASGFTFGSYAMTWVRQAPGKGLEWVSAISGSGGNTFYADSVKGRFTISRDNSKNTLYLQMNSLRAEDTAVYYCARVSPIAAPMDYWGQGTLVTVSS VL: EIVLTQSPGTLSLSPGERATLSCRASQSLGSFYLAWYQQKPGQAPRLLIYGASSRATGIPDRFSGSGSGTDFTLTISRLEPEDFAVYYCQHYNYPPSFTFGQGTKVEIK",–,830000
–,–,–,0.018,445000,0.0039,"L1.GDF/L3.KW/H3.AL: anti-BCMA antibody (antibody, V domains shown) VH: EVQLLESGGGLVQPGGSLRLSCAASGFTFGSYAMTWVRQAPGKGLEWVSAISGSGGNTFYADSVKGRFTISRDNSKNTLYLQMNSLRAEDTAVYYCARVSPIAALMDYWGQGTLVTVSS VL: EIVLTQSPGTLSLSPGERATLSCRASQSVGDFYLAWYQQKPGQAPRLLIYGASSRATGIPDRFSGSGSGTDFTLTISRLEPEDFAVYYCKHYGWPPSFTFGQGTKVEIK",–,318000
–,–,–,0.013,457000,0.000969,"L1.LGF/L3.PY/H3.AP: anti-BCMA antibody (antibody, V domains shown) VH: EVQLLESGGGLVQPGGSLRLSCAASGFTFGSYAMTWVRQAPGKGLEWVSAISGSGGNTFYADSVKGRFTISRDNSKNTLYLQMNSLRAEDTAVYYCARVSPIAAPMDYWGQGTLVTVSS VL: EIVLTQSPGTLSLSPGERATLSCRASQSLGSFYLAWYQQKPGQAPRLLIYGASSRATGIPDRFSGSGSGTDFTLTISRLEPEDFAVYYCQHYPYPPSFTFGQGTKVEIK",–,364000
